From US8715970B2, “Enzymatically catalyzed method of preparing mono-acylated polyols” (BASF SE, priority 2009, dated 2014)

Assays:
Assay type in all cases: biochemical
[1] = Enzyme-catalyzed acylation of 2-phenyl-1,3-propanediol with ethyl acetate as acyl donor (Example 2); conditions: 2-Ph-1,3-propanediol 20 mM in ethyl acetate; for Maximum monoester yield: 29° C.
Procedure: (§1) Each diol was dissolved to a concentration of 20 mM together with 5 mM of 3-hexanone in ethyl acetate, ≧99% from Fluka, which was used as acyl donor and solvent. Reactions were started by adding 4 ml reaction solution to 20 mg enzyme carrier beads loaded with either wild-type or T40A mutated CALB. Reactions were run at 29° C. on a HLC rotating thermo block. Aliquots of 50 μl were taken, filtered through wool in a Pasteur pipette and diluted with 50 μl ethyl acetate prior to analysis. The 3-hexanon used as internal standard were present in the reaction solution throughout both reaction and analysis.
(§2) 5 mM 3-hexanone was used as internal standard in the reaction mixtures together with 20 mM diol. Aliquots were taken during the reaction by taking 50 μl of reaction sample. The samples were filtered though wool together with 50 μl ethyl acetate, thereby any remaining enzyme were removed and the reaction samples were diluted by a factor of 2 prior to analysis.
(§3) The reactions catalyzed by the T40A-mutant were rerun with 100 mg enzyme carrier beads for determination of maximum monoester yield. The reactions with 2-methyl-1,3-propanediol and 2-phenyl-1,3-propanediol were rerun at 100 mM concentration of diol and 50 mg enzyme carrier beads, both with CALB wild type and CALB T40A-mutant. This was done in order to determine the enantiomeric excess.
(§4) All reactions were analyzed on GC, Hewlett Packard 5890 series II. Two different 25 m×0.32 mm WCOT fused silica columns were used, depending on the different substrates and products that were analyzed. A polar GC-column with CP Chirasil-Dex CB coating was used for the reactions with 1,2-ethanediol and 1,3-propanediol. A non-polar GC-column with CP-SIL 5CB coating was used for the reactions with 1,4-butanediol, 2-methyl-1,3-propanediol and 2-phenyl-1,3-propanediol.
(§5) The response factor for each diol was determined in relationship to 3-hexanone. When all diol and mono-ester had converted to di-ester, the response factor for the di-ester could be determined in relationship to […]. The concentration of mono-ester in each reaction was determined by subtracting the concentration of di-ester from the starting concentration of diol.

[2] = Enzyme-catalyzed acylation of 1,3-propanediol with ethyl acetate as acyl donor (Example 2); conditions: for Conversion at 3:1 (monoester:diester) / Conversion at 9:1 (monoester:diester) / Maximum monoester yield: 1,3-propanediol 20 mM in ethyl acetate; for Maximum monoester yield: 29° C.
Procedure: as §1, §2, §3, §4, §5
(§6) A great difference in concentration between acyl donor and diol was accomplished in the reactions by using ethyl acetate as solvent and acyldonor and a diol concentration of 20 mM. Therefore the reactions was considered to irreversible, following the reaction scheme:
(§7) [formula] A, B and C corresponds to diol, monoester and diester, respectively. k1 and k2 respectively corresponds to the reaction rates of the acylation of diol and monoester.
(§8) The reaction rates are dependent on enzyme concentrations and the kcat/KM towards the substrates. By fitting the concentrations measured over time into the equations and using the enzyme concentration determined by active site titration, the following results were obtained.

[3] = Acylation of 1,2-ethanediol in competition with 1-butanol (Example 4)
Procedure: Additionally, 1-butanol, ≧99.5% from Riedel-de Haën, was used as a competing substrate.
25 mM decane ≧98% from Fluka, was used as internal standard.
Two different acyl donors were used:
Ethyl acetate, ≧99% from Fluka, used as both solvent and acyl donor
1 M Vinyl butyrate, >99% from Fluka, together with in MTBE, 99.5% from Lab-Scan, used as solvent.
Each diol was dissolved to a concentration of 100 mM together with 25 mM of decane in ethyl acetate, ≧99% from Fluka, used as acyl donor and solvent. Reactions were started by adding 3 ml reaction solution to 10 mg enzyme carrier beads loaded with wild-type CALB or 20 mg carrier beads loaded with T40A mutated CALB. Reactions were run at 29° C. in a temperature bath consisting of a HETO thermostat coupled to a Bom-roerder combined temperature bath and magnetic stirrer. 25 mM decane was used as internal standard were present in the reaction solution throughout both reaction and analysis. Aliquots of 60 μl were taken, filtered through wool in a Pasteur pipette together with 540 μl ethyl acetate prior to analysis. The filtration through wool removed any remaining enzyme from the reaction solution, and the reaction samples were diluted by a factor of 10 prior to analysis.
as §4, with “1,2-ethanediol.” for “1,2-ethanediol and 1,3-propanediol.”, “1,4-butanediol.” for “1,4-butanediol, 2-methyl-1,3-propanediol and 2-phenyl-1,3-propanediol.”
as §5, with “decane.” for “3-hexanone.”

[4] = Enzyme-catalyzed acylation of 1,4-butanediol with vinyl butyrate as acyl donor (Example 3); conditions: 1,4-butanediol 10 mM, 200 mM vinyl butyrate in MTBE, 29° C.
Procedure: Each diol was dissolved to a concentration of 10 mM together with 2 mM of decane ≧98% from Fluka and 200 mM vinyl butyrate >99% from Fluka in MTBE 99.5% from Lab-Scan, which was used as acyl donor and solvent. Reactions were started by adding 4 ml reaction solution to 20 mg enzyme carrier beads loaded with either wild-type or T40A mutated CALB. Reactions were run at 29° C. on a HLC rotating thermo block. Aliquots of 50 μl were taken, filtered through wool in a Pasteur pipette and diluted with 50 μl ethyl acetate prior to analysis. The decane used as internal standard were present in the reaction solution throughout both reaction and analysis.
All reactions were analyzed on GC, Hewlett Packard 5890 series II. A 25 m×0.32 mm WCOT fused silica non-polar GC-column with CP-SIL 5CB coating was used for the reactions.
as §5, with “decane.” for “3-hexanone.”

[5] = Enzyme-catalyzed acylation of 2-methyl-1,3-propanediol with ethyl acetate as acyl donor (Example 2); conditions: for Conversion at 3:1 (monoester:diester) / Maximum monoester yield: 2-Me-1,3-propanediol 20 mM in ethyl acetate; for Maximum monoester yield: 29° C.
Procedure: as §1, §2, §3, §4, §5, §6, §7, §8

[6] = Enzyme-catalyzed acylation of 1,2-ethanediol with ethyl acetate as acyl donor (Example 2); conditions: for Maximum monoester yield: 1,2-ethanediol 20 mM in ethyl acetate (acyl donor and solvent), 29° C.; for Conversion at 3:1 (monoester:diester) / Conversion at 9:1 (monoester:diester): 1,2-ethanediol 20 mM in ethyl acetate; for Conversion at 3:1 (monoester:diester): product distribution 75%; for Conversion at 9:1 (monoester:diester): product distribution 90%
Procedure: as §1, §2, §3, §4, §5, §6, §7, §8

[7] = 2-methyl-1,3-propanediol, ethyl acetate

B1: WT: non-mutated Candida antarctica lipase B (CALB), SEQ ID NO: 2, immobilized on carrier beads (protein, listed as Candida antarctica)
chain: LPSGSDPAFSQPKSVLDAGLTCQGASPSSVSKPILLVPGTGTTGPQSFDSNWIPLSAQLGYTPCWISPPPFMLNDTQVNTEYMVNAITTLYAGSGNNKLPVLTWSQGGLVAQWGLTFFPSIRSKVDRLMAFAPDYKGTVLAGPLDALAVSAPSVWQQTTGSALTTALRNAGGLTQIVPTTNLYSATDEIVQPQVSNSPLDSSYLFNGKNVQAQAVCGPLFVIDHAGSLTSQFSYVVGRSALRSTTGQARSADYGITDCNPLPANDLTPEQKVAAAALLAPAAAAIVAGPKQNCEPDLMPYARPFAVGKRTCSGIVTP
modifications: immobilized on carrier beads
Conversion at 3:1 (monoester:diester) [1]: 46% | Maximum monoester yield [1]: 52% | Conversion at 3:1 (monoester:diester) [2]: 19% | Conversion at 9:1 (monoester:diester) [2]: 10% | Maximum monoester yield [2]: 33% | Selectivity diol/monoester ([2]; 1,3-propanediol, ethyl acetate, listed as wild type): 0.94 | Selectivity diol/monoester ([2]; 1,3-propanediol, ethyl acetate, listed as wild type CALB): 0.9 | Initial reaction rates ([3]; ethyl acetate): 0.081 mol/g/min | Initial reaction rates ([3]; vinyl butyrate): 0.41 mol/g/min | Maximum monoester yields [4]: 25% | Conversion at 3:1 (monoester:diester) [5]: 30% | Maximum monoester yield [5]: 42% | Selectivity diol/monoester [5, 7]: 1.5 | Maximum monoester yield [6]: 43% | Maximum monoester yield ([6]; listed as wild type): 43% | Conversion at 3:1 (monoester:diester) [6]: 17% | Conversion at 3:1 (monoester:diester) ([6]; listed as wild type): 17% | Conversion at 9:1 (monoester:diester) [6]: <9% | Conversion at 9:1 (monoester:diester) ([6]; listed as wild type): 9% | Selectivity diol/monoester ([6]; 1,2-ethanediol, ethyl acetate): 1.9

B2: T40A: CALB mutant with single mutation Thr40Ala (SEQ ID NO: 4) (protein)
chain: LPSGSDPAFSQPKSVLDAGLTCQGASPSSVSKPILLVPGXGTTGPQSFDSNWIPLSAQLGYTPCWISPPPFMLNDTQVNTEYMVNAITTLYAGSGNNKLPVLTWSQGGLVAQWGLTFFPSIRSKVDRLMAFAPDYKGTVLAGPLDALAVSAPSVWQQTTGSALTTALRNAGGLTQIVPTTNLYSATDEIVQPQVSNSPLDSSYLFNGKNVQAQAVCGPLFVIDHAGSLTSQFSYVVGRSALRSTTGQARSADYGITDCNPLPANDLTPEQKVAAAALLAPAAAAIVAGPKQNCEPDLMPYARPFAVGKRTCSGIVTP
modifications: T40 Mutant
Conversion at 3:1 (monoester:diester) [1]: >95% | Maximum monoester yield [1]: 55-65% | Conversion at 3:1 (monoester:diester) [2]: 22% | Conversion at 9:1 (monoester:diester) [2]: 19% | Maximum monoester yield [2]: 50% | Selectivity diol/monoester ([2]; 1,3-propanediol, ethyl acetate): 2.4 | Selectivity ratio diol/monoester T40A/WT ([2]; 1,3-propanediol, ethyl acetate): 2.6 | Initial reaction rates ([3]; ethyl acetate): 0.002 mol/g/min | Rate ratio, T40A/WT ([3]; ethyl acetate): 2.5% | Selectivity towards diol over 1-butanol, compared with wild type CALB ([3]; ethyl acetate as acyl donor and solvent (FIG. 9A)): higher | Initial reaction rates ([3]; vinyl butyrate): 0.065 mol/g/min | Rate ratio, T40A/WT ([3]; vinyl butyrate): 16% | Selectivity towards diol over 1-butanol, compared with wild type CALB ([3]; vinyl butyrate, MTBE (FIG. 10A)): higher | Maximum monoester yields [4]: 44% | Conversion at 3:1 (monoester:diester) [5]: 55% | Maximum monoester yield [5]: 55% | Selectivity diol/monoester [5, 7]: 2.6 | Selectivity ratio diol/monoester T40A/WT [5, 7]: 1.7 | Selectivity diol/monoester ([5]; 2-methyl-1,3-propanediol, ethyl acetate, listed as T40A CALB): 2.5 | Maximum monoester yield [6]: 77% | Conversion at 3:1 (monoester:diester) [6]: 99% | Conversion at 3:1 (monoester:diester) ([6]; listed as T40A CALB): 99% | Conversion at 9:1 (monoester:diester) [6]: 78% | Conversion at 9:1 (monoester:diester) ([6]; listed as T40A CALB): 78% | Selectivity diol/monoester ([6]; 1,2-ethanediol, ethyl acetate): 7.7 | Selectivity ratio diol/monoester T40A/WT ([6]; 1,2-ethanediol, ethyl acetate): 4.0 | Selectivity diol/monoester ([6]; 1,2-ethanediol, ethyl acetate, listed as T40A CALB): 7.6
